First the molecules themselves.
T1: ActRIIB-Fc homodimer (human, UniProt Q13705 19-137)
T1 construct: extracellular domain; also called unmodified ActRIIB-Fc homodimer; ActRIIB-Fc:ActRIIB-Fc homodimer
T1 sequence (looked up): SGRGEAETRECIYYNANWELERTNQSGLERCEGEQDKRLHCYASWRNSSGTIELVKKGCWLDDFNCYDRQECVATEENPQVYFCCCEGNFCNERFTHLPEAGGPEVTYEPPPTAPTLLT

B1: activin A (ligand, UniProt P08476 311-426, looked up)
chain: GLECDGKVNICCKKQFFVSFKDIGWNDWIIAPSGYHANYCEGECPSHIAGTSGSSLSFHSTVINHYRMRGHSPFANLKSCCVPTKLRPMSMLYYDDGQNIIKKDIQNMIVEECGCS
B2: GDF11 (ligand, UniProt O95390 299-407, looked up)
chain: NLGLDCDEHSSESRCCRYPLTVDFEAFGWDWIIAPKRYKANYCSGQCEYMFMQKYPHTHLVQQANPRGSAGPCCTPTKMSPINMLYFNDKQQIIYGKIPGMVVDRCGCS
notes: also called BMP11
B3: BMP10 (ligand, UniProt O95393 317-424, looked up)
chain: NAKGNYCKRTPLYIDFKEIGWDSWIIAPPGYEAYECRGVCNYPLAEHLTPTKHAIIQALVHLKNSQKASKACCVPTKLEPISILYLDKGVVTYKFKYEGMAVSECGCR
B4: GDF3 (ligand, UniProt Q9NR23 251-364, looked up)
chain: AAIPVPKLSCKNLCHRHQLFINFRDLGWHKWIIAPKGFMANYCHGECPFSLTISLNSSNYAFMQALMHAVDPEIPQAVCIPTKLSPISMLYQDNNDNVILRHYEDMVVDECGCG
notes: also called VGR2
B5: BMP9 (ligand, UniProt Q9UK05 320-429, looked up)
chain: SAGAGSHCQKTSLRVNFEDIGWDSWIIAPKEYEAYECKGGCFFPLADDVTPTKHAIVQTLVHLKFPTKVGKACCVPTKLSPISVLYKDDMGVPTLKYHYEGMSVAECGCR
notes: also called GDF2

One experiment concerns the target T1, ActRIIB-Fc homodimer. Nature of the experiment: SPR (Biacore), anti-Fc capture, ligand in flow. The procedure: A Biacore™-based binding assay was used to compare ligand binding selectivity of the ActRIIB-Fc:ALK4-Fc heterodimeric complex described above with that of ActRIIB-Fc and ALK4-Fc homodimer complexes. The ActRIIB-Fc:ALK4-Fc heterodimer, ActRIIB-Fc homodimer, and ALK4-Fc homodimer were independently captured onto the system using an anti-Fc antibody. Ligands were injected and allowed to flow over the captured receptor protein. Results are summarized in the table below, in which ligand off-rates (kd) most indicative of effective ligand traps are denoted by bold font.
(Surface plasmon resonance follows binding to a sensor surface in real time, without labels.)
With B1, binding was put at a Kd of 0.019 nM, the koff is 0.00023 s⁻¹ and the kon amounted to 1.2e+07 M⁻¹ s⁻¹.
Molecule B2 returned a Kd of 0.002 nM, a koff of 0.00011 s⁻¹ and a kon of 5e+07 M⁻¹ s⁻¹.
The molecule B3 displayed a Kd of 0.011 nM, a koff of 0.00026 s⁻¹ and a kon of 2.3e+07 M⁻¹ s⁻¹.
B4 had a Kd of 1.5 nM, a koff of 0.0022 s⁻¹ and a kon of 1.4e+06 M⁻¹ s⁻¹.
Consider B5, for which the dissociation constant (Kd) turned out to be 0.077 nM, the koff worked out at 0.0011 s⁻¹ and the kon is 1.4e+07 M⁻¹ s⁻¹.

The next experiment concerns the target T1, ActRIIB-Fc homodimer. In words: SPR (Biacore), anti-Fc capture, ligand in flow. This is another data set of the same source. The procedure: A Biacore™-based binding assay was used to compare ligand binding selectivity of the ActRIIB-Fc:ALK7-Fc heterodimeric complex described above with that of ActRIIB-Fc and ALK7-Fc homodimeric complexes. The ActRIIB-Fc:ALK7-Fc heterodimer, ActRIIB-Fc homodimer, and ALK7-Fc homodimer were independently captured onto the system using an anti-Fc antibody. Ligands were injected and allowed to flow over the captured receptor protein. Results are summarized in the table below, in which ligand off-rates (kd) most indicative of effective ligand traps are denoted by bold font.
B1 gave a Kd of 0.011 nM, a koff of 0.00014 s⁻¹ and a kon of 1.3e+07 M⁻¹ s⁻¹.
In turn, B2 registered a Kd of 0.002 nM, a koff of 0.00015 s⁻¹ and a kon of 9.6e+07 M⁻¹ s⁻¹.
B3 returned a Kd of 0.025 nM, a koff of 0.00015 s⁻¹ and a kon of 5.9e+06 M⁻¹ s⁻¹.
B4: the Kd was determined as 1.5 nM, the koff amounted to 0.0022 s⁻¹ and the kon is 1.4e+06 M⁻¹ s⁻¹.
B5 came in with a Kd of 0.01 nM, a koff of 0.001 s⁻¹ and a kon of 1.2e+08 M⁻¹ s⁻¹.

In a further experiment the target is T1, ActRIIB-Fc homodimer. In words: SPR (Biacore), 37 C, anti-Fc capture, ligand in flow. The procedure: A Biacore™-based binding assay was used to compare the ligand binding kinetics of an ActRIIB-Fc:ActRIIB(L79E)-Fc heterodimer with those of unmodified ActRIIB-Fc homodimer. Fusion proteins were captured onto the system using an anti-Fc antibody. Ligands were then injected and allowed to flow over the captured receptor protein at 37° C. Results are summarized in the table below, in which ligand off-rates (kd) most indicative of effective ligand traps are denoted in bold.
On to B1, for which the affinity, expressed as Kd, was 0.025 nM; the koff stood at 0.00019 s⁻¹; the kon was 7.4e+06 M⁻¹ s⁻¹.
Consider B2, for which the Kd is 0.004 nM, the koff is 0.00017 s⁻¹ and the kon stood at 4.1e+07 M⁻¹ s⁻¹.
Consider B3, for which the Kd was 0.004 nM, the koff stood at 0.0002 s⁻¹ and the kon was found to be 5.1e+07 M⁻¹ s⁻¹.
In turn, B4 gave a Kd of 1.5 nM, a koff of 0.0022 s⁻¹ and a kon of 1.4e+06 M⁻¹ s⁻¹.
Molecule B5 yielded a Kd of 0.25 nM, a koff of 0.0013 s⁻¹ and a kon of 5e+06 M⁻¹ s⁻¹.

By Kd is commonly meant the concentration at which binding is half-saturated. Usually koff stands for the first-order rate constant of dissociation. A lower koff goes with slow dissociation. As a reminder, the kon is the rate constant with which the complex forms. A high value points to fast association.

The record behind these values is patent publication US20250064952A1 (ACCELERON PHARMA, published 2025).
